In patent US20150140000A1 (INNATE PHARMA, published 2015):

Tests used:
[1] = target: wild-type human TLR3 ECD-CD32 construct (V5-TLR3-CD32) on HEK293T cells (human); test: flow cytometry, 293T cells expressing TLR3/CD32 solely at the surface, neutral pH
Procedure: Following two wash cycles, cell MFI was analyzed on a FACS Canto II cytometer.

[2] = target: T1, recombinant human His-tagged TLR3 extracellular domain protein (human, UniProt O15455 24-704); test: SPR (Biacore T100), bivalent affinity, TLR3-His immobilized, pH 5.6; pH 5.6
T1 construct: Bought protein; also called TLR3-His; recombinant human TLR3; not shown: His tag

[3] = target: T1, recombinant human His-tagged TLR3 …; test: SPR (Biacore T100), bivalent affinity, TLR3-His immobilized, pH 7.2; pH 7.2
Procedure: For bivalent affinity measurement, unless indicated otherwise, TLR3-His protein was immobilized on a Sensor Chip CM5 (carboxymethylated dextran layer) by amine coupling. […] The resulting sensorgrams were analysed by global fitting using the appropriate model.
Binding to TLR3 at neutral (pH 7.2) and acid (pH 5.6) conditions, and KD values were calculated.

B1: antibody 32C4 (antibody, V domains shown)
VH: EVQLQQYGAELGKPGTSVKLSCKVSGYNIWSTYIYWVNQRPGKGLEWIGRIDPANGNTIYAEKFKTKATLTADTSSNTAYMQLSQLKSDDTAIYFCAMGDHGGYVMDAWGQGASVTVSS
VL: DIQMTQSPGSLSASLGETVSIECLASEDIYSYLAWYQQKPGKSPQLLIYAANRLEDGVPSRFSGSGSGTQYSLKISGMQPEDEGDYFCLQGSEFPYTFGTGTKLELK
notes: Rat monoclonal from LOU/c immunization #2; also called clone 32C4
- EC50 [1]: 0.037 µg/mL

B2: antibody 7G11 (antibody, V domains shown)
VH: EVQLQQYGAELGKPGTSVKLSCKVSGYNITYTYMHWVNQRPGKGLEWIGRIDPANGNTIYGEKFKNKATLTADTSSNTAYMQLSQLKSDDTAIYFCAMGEFDYFDHWGQGVMVTVSS
VL: DIQMTQSPASLSASLGETVSIECLASEDISNDLAWYQQKSGKSPQVLIYAASRLEDGVPSRFSGSGSGTRYSLKISGMQPEDEADYFCQQSYKYPVTFGSGTKLEIK
notes: Rat monoclonal from LOU/c immunization #2; also called clone 7G11
- EC50 [1]: 0.021 µg/mL

B3: antibody 31F6 (antibody, V domains shown)
VH: EVQLQQSGAELGKPGTSVKLSCKVSGYNIRYTYMHWVNQRPGKGLEWIGRIDPANGDSIYGEDFKTKATLTADTSSNTAYMQLSQLKSDDTAIYFCAMGEFDYFDYWGQGVMVTVSSASTK
VL: DIQMTQSPPSLSASLGETVSIECLASEGISNDLAWYQQRSGKSPQLLIYAASRLQDGVPSRFSGSGSGTRYSLKISGMQPEDEADYFCQQNYKYPLTFGSGTKLEIK
notes: Rat monoclonal from LOU/c immunization #2; also called clone 31F6
- EC50 [1]: 0.026 µg/mL

B4: antibody 11E1 (antibody, V domains shown)
VH: QVQLQQPGAELVRPGASVKLSCKASGYTFTNYWMNWVKQRPGQGLEWIGMIDPSDSETHYNQMFKDKATLTVDKSSSTAYMQLSSLTSEDSAVYYCARGGASSDYYYFDYWGQGTTLTVSSASTK
VL: ETTVTQSPASLSMAIGEKVTIRCITSTDIHDDINWYQQKPGEPPKLLISEGNTLRPGVPSRFSSSGYGTDFVFTIENMLSEDVADYYCLQSDNLPRTFGGGTKLEIKRT
notes: Mouse monoclonal from Balb/c immunization #1; also called clone 11E1
- Kd [2]: 1 nM
- EC50 [1]: 0.016 µg/mL
- Kd [3]: 0.0875 nM
